From patent US20220153822A1 (ALYTAS THERAPEUTICS, published 2022)

T1: Perilipin epitope 6 peptide EVRVPWLHSLAAAQE (SEQ ID NO. 333) (human, Biotin-PEG Spacer and GGSGGS Linker (SEQ ID NO. 438) at the N-terminus, or Biotin-PEG Spacer and AAAAA Linker (SEQ ID NO. 439) at the C-terminus)
T1 construct: Two biotinylated variants were used for selection and ELISA; On the peptide array it stood without biotin; also called target peptide
T1 peptide: EVRVPWLHSLAAAQE

T2: Perilipin epitope 5 peptide AKPSLLSRVGALTNT (SEQ ID NO. 332) (human, Biotin-PEG Spacer and GGSGGS Linker (SEQ ID NO. 438) at the N-terminus, or Biotin-PEG Spacer and AAAAA Linker (SEQ ID NO. 439) at the C-terminus)
T2 construct: Two biotinylated variants were used for selection and ELISA; On the peptide array it stood without biotin; also called target peptide
T2 peptide: AKPSLLSRVGALTNT

B1: Antibody No. 53 (antibody, V domains shown)
VH: QVQLVQSGGGVVQPGRSLRLSCAASGFTFSSYGMHWVRQAPGKGLEWVAVISYDGSNKYYADSVKGRFTISRDNSKNTLYLQMNSLRAEDTAVYYCAKDFSDAFDIWGQGTMVTVSS
VL: QSVLTQPPSVSAAPGQKVTISCSGSSSNIGNNYVSWYQQLPGTAPKLLIYDNNKRPSGIPDRFSGSKSGTSATLGITGLQTGDEADYYCGTWDSSLSAVVFGGGTKVTVL
notes: human IgG1, lambda or kappa light chain; also called 447-G07
B2: Antibody No. 31 (antibody, V domains shown)
VH: EVQLLESGGGVVQPGRSLRLSCAASGFTFSSYAMHWVRQAPGKGLEWVAVISYDGSNKYYADSVKGRFTISRDNSKNTVSLQMSSLRADDTAIYYCVKDTILIDWGQGTLVTVSS
VL: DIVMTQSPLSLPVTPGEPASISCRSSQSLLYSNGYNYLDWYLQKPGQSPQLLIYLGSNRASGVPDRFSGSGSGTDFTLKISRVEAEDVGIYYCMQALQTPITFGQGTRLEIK
notes: human IgG1, lambda or kappa light chain; also called 448-E06
B3: Antibody No. 35 (antibody, V domains shown)
VH: QVQLVQSGAEVKKPGTTVKISCKVSGYSFTDYYMHWVQQAPGKGLEWMGLVDPEDGETLYAEKFQGRVTITVDTSTDTAYMELSSLRSEDTAVYYCAAEPQMVQGPSPPDYWGQGTLVTVSS
VL: QSALTQPASVSGSPGQSITISCTGTSSDVGGYSYVSWYQQHPGKAPKLMIYDVSNRPSGVSNRFSGSKSGNTASLTISGLQAEDEADYYCSSYTSSSTLLFGGGTKLTVL
notes: human IgG1, lambda or kappa light chain; also called 447-E03
B4: Antibody No. 51 (antibody, V domains shown)
VH: QVQLQESGGGVVQPGRSLRLSCAASGFTFSSYAMHWVRQAPGKGLEWVAVISYDGSNKYYAGSVKGRFTISRDNSKNTLYLQMNSLRAEDTAVYYCARDWRGVYFDYWGQGTLVTVSS
VL: QSALTQPASVSGSPGQSITISCTGTSSDVGGYNYVSWYQQHPGKAPKLMIYEVSNRPSGVSNRFSGSKSGNTASLTISGLQAEDEADYYCSSYTSSSTLVFGGGTKLTVL
notes: human IgG1, lambda or kappa light chain; also called 447-E05
B5: Antibody No. 28 (antibody, V domains shown)
VH: QVQLVQSGGGVVQPGRSLRLSCAASGFTFSSYAMHWVRQAPGKGLEWVAVISYDGSNKYYADSVKGRFTISRDNSKNTLYLQMNSLRAEDTAVYYCARDSGVVMDYWGQGTLVTVSS
VL: QSALTQPASVSGSPGQSITISCTGTSSDVGGYNYVSWYQQHPGKAPKLMIYDVSNRPSGVSNRFSGSKSGNTASLTISGLQAEDEADYYCSSYTSSSTLVFGGGTKVTVL
notes: human IgG1, lambda or kappa light chain; also called 447-F08
B6: Antibody No. 55 (antibody, V domains shown)
VH: QVQLVQSGAEVKKPGASVKVSCKASGYTFTSYYMHWVRQAPGQGLEWMGIINPSGGSTSYAQKFQGRVTMTRDTSTSTVYMELSSLRSEDTAVYYCARDDYGDYWGQGTLVTVSS
VL: QSALTQPASVSGSPGQSITIPCTGTSSDVGGYNYVSWYQQHPGKAPKLMIYEVSNRPSGVSNRFSGSKSGNTASLTISGLQAEDEADYYCSSYTSSSFSFGTGTKLTVL
notes: human IgG1, lambda or kappa light chain; also called 447-C08
B7: Antibody No. 13 (antibody, V domains shown)
VH: QVQLVQSGGGLVQPGRSLRLSCAASGFTFDDYAMHWVRQAPGKGLEWVSGISWNSGSIGYADSVKGRFTISRDNAKNSLYLQMNSLRAEDTALYYCAKEDGSYALDYWGQGTLVTVSS
VL: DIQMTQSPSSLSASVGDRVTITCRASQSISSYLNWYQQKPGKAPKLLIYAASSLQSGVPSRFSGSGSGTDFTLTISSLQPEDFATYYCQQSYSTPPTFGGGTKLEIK
notes: human IgG1, lambda or kappa light chain; also called 432-G09
B8: Antibody No. 34 (antibody, V domains shown)
VH: QVQLVESGGGLVQPGRSLRLSCAASGFTFDDYAMHWVRQAPGKGLEWVSGISWNSGSIGYADSVKGRFTISRDNAKNSLYLQMNSLRAEDTALYYCAKEGGDSDFDYWGQGTLVTVSS
VL: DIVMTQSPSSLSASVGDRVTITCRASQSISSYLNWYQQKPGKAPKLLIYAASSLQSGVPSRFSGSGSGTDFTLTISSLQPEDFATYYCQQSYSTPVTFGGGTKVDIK
notes: human IgG1, lambda or kappa light chain; also called 447-B01
B9: Antibody No. 38 (antibody, V domains shown)
VH: EVQLVQSGAEVKKPGASVKVSCKASGYTFTSYYMHWVRQAPGQGLEWMGIINPSGGSTSYAQKFQGRVTMTRDTSTSTVYMELSSLRSEDTAVYYCARNVPGDYEVGFDYWGQGTLVTVSS
VL: QSVLTQPPSVSGAPGQRVTISCTGSSSNIGAGYDVHWYQQLPGTAPKLLIYGNSNRPSGVPDRFSGSKSGTSASLAITGLQAEDEADYYCQSYDSSLSAVVFGGGTKLTVL
notes: human IgG1, lambda or kappa light chain; also called 447-A05
B10: Antibody No. 24 (antibody, V domains shown)
VH: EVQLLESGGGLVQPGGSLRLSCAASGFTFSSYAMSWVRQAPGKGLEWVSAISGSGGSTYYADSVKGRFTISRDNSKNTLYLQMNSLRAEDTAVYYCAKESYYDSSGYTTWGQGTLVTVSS
VL: QSVLTQPPSVSGAPGQRVTISCTGSSSNIGAGYDVHWYQQLPGTAPKLLIYGNSNRPSGVPDRFSGSKSGTSASLAITGLQAEDEADYYCQSYDSSLSGYVFGTGTKLTVL
notes: human IgG1, lambda or kappa light chain; also called 447-C09
B11: Antibody No. 26 (antibody, V domains shown)
VH: EVQLLESGGGVVQPGRSLRLSCAASGFTFSSYAMHWVRQAPGKGLEWVAVISYDGSNKYYADSVKGRFTISRDNSKNTLYLQMNSLRAEDTAVYYCARELYYGPGGMDVWGQGTLVTVSS
VL: QSVLTQPPSVSGAPGQRVTISCTGSSSNIGAGYDVHWYQQLPGTAPKLLIYGNSNRPSGVPDRFSGSKSGTSASLAITGLQAEDEADYYCQSYDSSLSGSVFGGGTKLTVL
notes: human IgG1, lambda or kappa light chain; also called 447-D06
B12: Antibody No. 30 (antibody, V domains shown)
VH: EVQLVQSGGGLVQPGGSLRLSCAASGFTFSSYAMSWVRQAPGKGLEWVSAISGSGGSTYYADSVKGRFTISRDNAKNSLYLQMNSLRAEDTAVYYCARVRVSDGRFDYWGQGTLVTVSS
VL: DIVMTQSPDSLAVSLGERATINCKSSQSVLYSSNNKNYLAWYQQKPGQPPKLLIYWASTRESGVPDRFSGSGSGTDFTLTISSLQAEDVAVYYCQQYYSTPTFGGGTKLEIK
notes: human IgG1, lambda or kappa light chain; also called 448-E04
B13: Antibody No. 52 (antibody, V domains shown)
VH: QVQLVQSGAEVKKPGASVKVSCKASGYTFTSYGISWVRQAPGQGLEWMGWISAYNGNTNYAQKLQGRVTMTTDTSTSTAYMELRSLRSDDTAVYYCASWGVVGGMDVWGQGTLVTVSS
VL: DIQMTQSPSSVSASVGDRVTITCRASQGISSWLAWYQQKPGKAPKLLIYAASSLQSGVPSRFSGSGSGTDFTLTISSLQPEDFATYYCQQANSFPLTFGGGTKVDIK
notes: human IgG1, lambda or kappa light chain; also called 448-F05
B14: Antibody No. 57 (antibody, V domains shown)
VH: QVQLVESGAEVKKPGASVKVSCKASGYTFTSYYMHWVRQAPGQGLEWMGIINPSGGSTSYAQKFQGRVTMTRDTSTSTVYMELSSLRSEDTAVYYCARMTTSLGFDYWGQGTLVTVSS
VL: DIQLTQSPSSVSASVGDKVTITCRASQGISNWLAWYQLKPGKAPKLLVYAASSLQSGVPSRFSGSGSGTDFTLTISNLQPEDFATYYCQQANSLPLTFGGGTRLEIK
notes: human IgG1, lambda or kappa light chain; also called 447-H10
B15: Antibody No. 36 (antibody, V domains shown)
VH: EVQLVESGGGVVQPGRSLRLSCAASGFTFSSYAMHWVRQAPGKGLEWVAVISYDGSNKYYADSVKGRFTISRDNSKNTLYLQMNSLRAEDTAVYYCARDPLYGMDVWGQGTLVTVSS
VL: QSVLTQPPSASGSPGQSVTISCTGTSSDVGNYNYVSWFQQHPGKAPKLMIYEVSKRPSGVPDRFSGSKSGNTASLTVSGLQAEDEADYYCASYADSNNLYVFGTGTKLTVL
notes: human IgG1, lambda or kappa light chain; also called 447-B03
B16: Antibody No. 54 (antibody, V domains shown)
VH: EVQLLESGGGVVQPGRSLRLSCAASGFTFSSYGMHWVRQAPGKGLEWVAVISYDGSNKYYADSVKGRFTISRDNSKNTLYLQMNSLRAEDTAVYYCAKGSGWYFDYWGQGTLVTVSS
VL: not shown
notes: human IgG1, lambda or kappa light chain; also called 447-C12
B17: Antibody No. 23 (antibody, V domains shown)
VH: QVQLVQSGGGLVQPGRSLRLSCAASGFTFDDYAMHWVRQAPGKGLEWVSGISWNSGSIGYADSVKGRFTISRDNAKNSLYLQMNSLRAEDTALYYCAKDIAGGDYPVFDYWGQGTLVTVSS
VL: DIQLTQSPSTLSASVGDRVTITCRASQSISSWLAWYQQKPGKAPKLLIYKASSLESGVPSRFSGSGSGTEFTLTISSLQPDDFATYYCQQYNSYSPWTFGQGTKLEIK
notes: human IgG1, lambda or kappa light chain; also called 435-B08
B18: Antibody No. 37 (antibody, V domains shown)
VH: QVQLVQSGAEVKKPGASVKVSCKASGYTFTSYYMHWVRQAPGQGLEWMGIINPSGGSTSYAQKFQGRVTMTRDTSTSTVYMELSSLRSEDTAVYYCARDSYYDSSGYYYADAFDIWGQGTMVTVSS
VL: QSVLTQPPSVSGAPGQRVTISCTGSSSNIGAGYDVHWYQQLPGTAPKLLIYGNSNRPSGVPDRFSGSKSGTSASLAITGLQAEDEADYYCQSYDSSLSGDVVFGGGTKLTVL
notes: human IgG1, lambda or kappa light chain; also called 447-F02

Experiments:
[1] = target: T1, Perilipin epitope 6 peptide …; assay: phage display selection and ELISA on biotinylated target peptide
[2] = target: T2, Perilipin epitope 5 peptide …; assay: as above

Binder	binding result [1]	binding result [2]
B1	binds	–
B2	binds	–
B3	–	binds
B4	binds	–
B5	binds	–
B6	binds	–
B7	–	binds
B8	–	binds
B9	–	binds
B10	binds	–
B11	binds	–
B12	binds	–
B13	binds	–
B14	binds	–
B15	–	binds
B16	binds	–
B17	binds	–
B18	–	binds
